Experimental data from patent US20260201033A1 (LTZ THERAPEUTICS, published 2026).
Residue numbers refer to the chain shown, from its start.

T1: Human C-type lectin domain family 5 member A (CLEC5A), endogenous on human monocytes and M0 macrophages (human, UniProt Q9NY25 1-188)
T1 construct: Endogenous CLEC5A on primary human monocytes and monocyte-derived M0 macrophages; also called MDL-1; M0 macrophages (CLEC5A+) cells
T1 sequence: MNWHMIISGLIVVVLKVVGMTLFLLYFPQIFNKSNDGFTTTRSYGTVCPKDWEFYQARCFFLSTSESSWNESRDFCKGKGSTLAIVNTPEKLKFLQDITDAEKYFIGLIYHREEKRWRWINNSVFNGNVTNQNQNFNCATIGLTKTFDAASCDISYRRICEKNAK

T2: CD79b on Ramos cells and on endogenous B cells of human PBMCs (human, UniProt P40259 29-229)
T2 sequence (looked up): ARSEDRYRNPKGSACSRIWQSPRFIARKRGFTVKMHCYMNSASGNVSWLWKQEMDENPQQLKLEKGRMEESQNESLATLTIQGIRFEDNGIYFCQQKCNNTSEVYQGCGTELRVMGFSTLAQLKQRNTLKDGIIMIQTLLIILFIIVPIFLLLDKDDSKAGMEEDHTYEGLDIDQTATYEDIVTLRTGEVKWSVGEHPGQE

B1: DX244, reference anti-CLEC5A antibody (antibody, human IgG1, V domains shown)
VH: QIQLVQSGPELKKPGETVKISCKASGYTFTIYAMNWVKQAPGKGLEWMGWINTDTGEPTYADDFKGRFAFSLETSASTAYLQINNLKNEDMATYFCARSSEVFYDYRFDYWGQGTALTVSS
VL: DIQMTQSPSSLSASLGERVSLTCRASQDIGSSLNWLQQEPDGTIKRLIYATSNLDSGVPKRFSGSRSGSDYSLTISSLESEDFVHYYCLQYASSPFTFGSGTKLEIKR
notes: also called benchmark DX244
B2: CD79b/5C7 (1+1 B) Fc-silenced (bispecific antibody, human IgG1, kappa, L234A L235A)
heavy 1: EQQLVETGGGLIQPGGSLRLSCAASGFTINIDYWISWVRQAPGKGLEWIGIIDPGDGTTYFAIWVSGRFTISFDNSKNTVYLQMNSLRAEDTAVYFCVREFSASAYQYDLWGPGTLVTVSSASTKGPSVFPLAPSSKSTSGGTAALGCLVKDYFPEPVTVSWNSGALTSGVHTFPAVLQSSGLYSLSSVVTVPSSSLGTQTYICNVNHKPSNTKVDKKVEPKSCDKTHTCPPCPAPEAAGGPSVFLFPPKPKDTLMISRTPEVTCVVVDVSHEDPEVKFNWYVDGVEVHNAKTKPREEQYNSTYRVVSVLTVLHQDWLNGKEYKCKVSNKALGAPIEKTISKAKGQPREPQVCTLPPSRDELTKNQVSLSCAVKGFYPSDIAVEWESNGQPENNYKTTPPVLDSDGSFFLVSKLTVDKSRWQQGNVFSCSVMHEALHNRFTQKSLSLSPGK
heavy 2: not shown
light: ELVMTQSPATLSVSPGERATLSCRASEDIENYLAWYQQKPGQPPRLLIYRASTLSSGVPARFSGSGSGTEFTLTISSLQSEDFAVYYCQQGYRNSNVDNPFGGGTKVEIKRTVAAPSVFIFPPSDEQLKSGTASVVCLLNNFYPREAKVQWKVDNALQSGNSQESVTEQDSKDSTYSLSSTLTLSKADYEKHKVYACEVTHQGLSSPVTKSFNRGEC
B3: CD79b/5C7 (1+1 B) Fc-optimized (bispecific antibody, human IgG1, kappa)
heavy 1: B2 heavy 1 with A238L, A239L, G240A, G333P, A334L, I336E, C353Y, R439H, F440Y
heavy 2: DIQMTQSPSSLSASVGDRVTITCQASESVDRNNRLAWFQQKPGKPPKLLIYTTSTLASGVPSRFSGSGSGTDFTLTISSLQPEDVATYYCAGYRGAHTDGDAFGGGTKVEIKGGGGSGGGGSGGGGSGGGGSEQQLVESGGGLVKPGGSLRLSCAASGFSFSRSSYMCWVRQAPGKGLEWIGCLSVGDGHTYYASWAKGRFTISKDSAKNSVYLQMNSLRAEDTAVYFCARAPSYSGDGGHGYDLWGPGTLVTVSSDKTHTCPPCPAPELLAGPSVFLFPPKPKDTLMISRTPEVTCVVVDVSHEDPEVKFNWYVDGVEVHNAKTKPREEQYNSTYRVVSVLTVLHQDWLNGKEYKCKVSNKALPLPEEKTISKAKGQPREPQVYTLPPSRDELTKNQVSLWCLVKGFYPSDIAVEWESNGQPENNYKTTPPVLDSDGSFFLYSKLTVDKSRWQQGNVFSCSVMHEALHNHYTQKSLSLSPGK
light: B2 light
B4: CD79b/5C7 (2+2 B) Fc-silenced (bispecific antibody, human IgG1, kappa, L234A L235A)
heavy: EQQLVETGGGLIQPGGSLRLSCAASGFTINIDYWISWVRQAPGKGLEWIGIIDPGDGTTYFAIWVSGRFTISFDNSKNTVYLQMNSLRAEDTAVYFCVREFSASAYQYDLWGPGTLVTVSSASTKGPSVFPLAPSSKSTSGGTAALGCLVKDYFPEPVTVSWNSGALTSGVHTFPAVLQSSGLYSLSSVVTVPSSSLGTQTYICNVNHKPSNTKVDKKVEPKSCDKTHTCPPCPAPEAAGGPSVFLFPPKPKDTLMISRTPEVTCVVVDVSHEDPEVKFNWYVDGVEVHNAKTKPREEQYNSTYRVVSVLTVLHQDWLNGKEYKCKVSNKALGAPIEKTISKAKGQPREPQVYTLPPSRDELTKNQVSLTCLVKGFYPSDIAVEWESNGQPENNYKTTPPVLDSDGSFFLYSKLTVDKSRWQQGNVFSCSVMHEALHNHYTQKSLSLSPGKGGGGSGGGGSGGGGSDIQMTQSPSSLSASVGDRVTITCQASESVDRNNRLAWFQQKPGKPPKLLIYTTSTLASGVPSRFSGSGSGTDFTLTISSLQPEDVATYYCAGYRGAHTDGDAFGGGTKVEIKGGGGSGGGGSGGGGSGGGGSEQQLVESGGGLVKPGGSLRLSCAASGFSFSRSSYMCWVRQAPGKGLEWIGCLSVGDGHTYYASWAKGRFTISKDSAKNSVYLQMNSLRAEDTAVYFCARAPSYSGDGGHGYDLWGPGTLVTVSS
light: B2 light

Tests used:
[1] = biological target: T1, Human C-type lectin domain family 5 …; experiment: flow cytometry on human M0 macrophages, anti-human IgG PE
Protocol: About 50,000 M0 macrophages were incubated with serially diluted antibodies in FACS buffer (PBS+0.5% BSA) for 30 minutes on ice. […] For analysis, the mean fluorescence intensity (MFI of PE) of each antibody was determined and plotted using GraphPad Prism software (Version 9.4.1; GraphPad Software Inc.).

[2] = biological target: T2, CD79b on Ramos cells and on endogenous …; experiment: cell-based or functional assay
[3] = biological target: T2, CD79b on Ramos cells and on endogenous …; experiment: cell-based or functional assay; remark: listed apart in the source
[4] = biological target: T2, CD79b on Ramos cells and on endogenous …; experiment: cell-based or functional assay; remark: listed apart in the source
[5] = biological target: T2, CD79b on Ramos cells and on endogenous …; experiment: cell-based or functional assay; remark: listed apart in the source
[6] = biological target: T2, CD79b on Ramos cells and on endogenous …; experiment: cell-based or functional assay; remark: listed apart in the source
[7] = biological target: T2, CD79b on Ramos cells and on endogenous …; experiment: cell-based or functional assay; remark: listed apart in the source

EC50 [1] [pM]	Binder	IC50 (nM), Ramos cell killing by M2 macrophages, Donor 100 [2] [nM]	IC50 (nM), Ramos cell killing by M2 macrophages, Donor 233 [2] [nM]	IC50 (nM), Ramos cell killing by M2 macrophages, Donor 431 [2] [nM]	IC50 (nM), killing of endogenous B cells by PBMCs, Donor 023 [3] [nM]	IC50 (nM), killing of endogenous B cells by PBMCs, Donor 367 [3] [nM]	IC50 (nM), killing of endogenous B cells by PBMCs, Donor 431 [3] [nM]	IC50 (nM), Ramos cell killing by PBMCs (test 2), Donor 431 [4] [nM]	IC50 (nM), Ramos cell killing by PBMCs (test 3), Donor 022 [5] [nM]	IC50 (nM), Ramos cell killing by PBMCs (test 3), Donor 281 [5] [nM]	IC50 (nM), Ramos cell killing by PBMCs (test 3), Donor 367 [5] [nM]	IC50 (nM), Ramos cell killing by M0 macrophages, Donor 100 [6] [nM]	IC50 (nM), Ramos cell killing by M0 macrophages, Donor 233 [6] [nM]	IC50 (nM), Ramos cell killing by M0 macrophages, Donor 431 [6] [nM]	IC50 (nM), Ramos cell killing by M1 macrophages, Donor 100 [7] [nM]	IC50 (nM), Ramos cell killing by M1 macrophages, Donor 431 [7] [nM]	IC50 (nM), Ramos cell killing by M2 macrophages, Donor 022 [2] [nM]	IC50 (nM), Ramos cell killing by M0 macrophages, Donor 022 [6] [nM]	IC50 (nM), Ramos cell killing by M0 macrophages, Donor 159 [6] [nM]	IC50 (nM), Ramos cell killing by M0 macrophages, Donor 161 [6] [nM]
2800	B1	–	–	–	–	–	–	–	–	–	–	–	–	–	–	–	–	–	–	–
–	B2	0.002	0.005	0.003	0.0833	0.0329	0.0329	0.0329	0.334	0.0452	0.29	0.006	0.003	0.004	0.001	0.005	–	–	–	–
–	B3	–	–	0.001	–	0.0253	0.0253	0.0253	–	0.0123	0.841	–	–	0.003	–	0.006	–	–	–	–
–	B4	0.0004	0.002	0.0009	0.0231	0.00617	0.00617	0.0062	0.131	0.043	0.0643	0.0008	0.002	–	0.0007	0.0014	0.001	0.002	0.001	0.0008
